Data on six molecules can be found in patent publication US20240166767A1 (SCIRHOM, published 2024).

Sequences and labels used below:
T1: dog iRhom2 full length wild type C-terminally tagged with 3 consecutive copies of the T7 epitope (dog, UniProt Q00M95 1-827)
T1 construct: whole, on cells; also called dog-iR2-FL-WT-T7; expressed by MEF-DKO-Dog-iR2-FL-WT-T7 cells
T1 sequence: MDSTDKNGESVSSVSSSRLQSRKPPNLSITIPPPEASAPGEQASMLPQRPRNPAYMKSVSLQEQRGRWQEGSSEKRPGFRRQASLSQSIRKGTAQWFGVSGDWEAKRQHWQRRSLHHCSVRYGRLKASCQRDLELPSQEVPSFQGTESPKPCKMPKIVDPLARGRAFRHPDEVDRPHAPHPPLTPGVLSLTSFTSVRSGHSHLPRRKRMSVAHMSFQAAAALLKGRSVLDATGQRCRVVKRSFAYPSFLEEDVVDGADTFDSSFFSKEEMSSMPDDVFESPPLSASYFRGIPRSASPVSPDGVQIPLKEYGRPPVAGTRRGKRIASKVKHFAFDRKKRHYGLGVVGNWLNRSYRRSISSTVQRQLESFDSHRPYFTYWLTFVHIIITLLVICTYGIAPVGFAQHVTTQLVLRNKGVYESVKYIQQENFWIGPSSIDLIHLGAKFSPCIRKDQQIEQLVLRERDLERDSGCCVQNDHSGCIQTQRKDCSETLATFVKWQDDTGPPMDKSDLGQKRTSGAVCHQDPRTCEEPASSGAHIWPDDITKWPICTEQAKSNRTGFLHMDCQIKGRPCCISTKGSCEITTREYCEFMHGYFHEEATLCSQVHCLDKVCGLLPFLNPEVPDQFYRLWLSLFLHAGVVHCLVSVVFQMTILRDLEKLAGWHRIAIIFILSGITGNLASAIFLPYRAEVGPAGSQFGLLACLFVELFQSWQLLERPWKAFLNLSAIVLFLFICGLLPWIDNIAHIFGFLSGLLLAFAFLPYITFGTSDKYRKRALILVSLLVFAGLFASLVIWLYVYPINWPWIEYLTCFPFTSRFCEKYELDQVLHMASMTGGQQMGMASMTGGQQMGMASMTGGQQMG

B1: humanized antibody 16-B-03 (antibody, V domains shown)
VH: QVTLRESGPALVKPTQTLTLTCTFSGFSLSTFALGVGWIRQPPGKALEWLAHIWWDDDKYYNPALKSRLTISKDTSKNQVVLTITNMDPVDTATYYCARITTYYYGMDYWGQGTLVTVSS
VL: EIVMTQSPDFQSVTPKEKVTITCRASQSIGNHLHWYQQKPDASPKLLIKYASQSISGVPSRFSGSGSGTDFTLTINSLEAEDAATYFCQQSYQWPLTFGQGTKLEIK
notes: Tested as whole humanized antibody produced in CHO cells and detected with anti-human IgG; the general methods speak of human IgG1/Kappa; also called clone 16-B-03
B2: humanized antibody 16-B-07 (antibody, V domains shown)
VH: QVTLRESGPALVKPTQTLTLTCTFSGFSLSTFALGVGWIRQPPGKALEWLAHIWWDEDKYYNPALKSRLTISKDTSKNQVVLTITNMDPVDTATYYCARITTYYYGMDYWGQGTLVTVSS
VL: EIVMTQSPDFQSVTPKEKVTITCRASQSIGNHLHWYQQKPDASPKLLIKYASQSISGVPSRFSGSGSGTDFTLTINSLEAEDAATYFCQQSYQWPLTFGQGTKLEIK
notes: Tested as whole humanized antibody produced in CHO cells and detected with anti-human IgG; the general methods speak of human IgG1/Kappa; also called clone 16-B-07
B3: humanized antibody 16-B-05 (antibody, V domains shown)
VH: QVTLRESGPALVKPTQTLTLTCTFSGFSLSTFALGVGWIRQPPGKALEWLAHIWWDEDKYYNPALKSRLTISKDTSKNQVVLTITNMDPVDTATYYCARITTYYYGMDYWGQGTLVTVSS
VL: EIVMTQSPDFQSVTPKEKVTITCRASQSIGNHLHWYQQKPDASPKLLIKYASQSISGVPSRFSGSGSGTDFTLTINSLEAEDAATYFCQQSYNWPLTFGQGTKLEIK
notes: Tested as whole humanized antibody produced in CHO cells and detected with anti-human IgG; the general methods speak of human IgG1/Kappa; The printed LCVD reads SRESGSG where the printed cDNA encodes SRFSGSG; also called clone 16-B-05
B4: humanized antibody 42-B-04 (antibody, V domains shown)
VH: QVTLRESGPALVKPTQTLTLTCTFSGFSLSTFGRGVGWIRQPPGKALEWLAHIWWDDEKYYNSALKSRLTISKDTSKNQVVLTITNMDPVDTATYYCARIQNYGSNYWYFDVWGQGTLVTVSS
VL: AIQLTQSPSSLSASVGDRVTITCRASSRISYMFWYQQKPGKAPKVLIYDTSNLASGVPSRFSGSGSGTDYTLTISSLQPEDFATYYCQQWNAYPLTFGQGTKLEIK
notes: Tested as whole humanized antibody produced in CHO cells and detected with anti-human IgG; the general methods speak of human IgG1/Kappa; also called clone 42-B-04
B5: humanized antibody 23-B-04 (antibody, V domains shown)
VH: QVTLRESGPALVKPTQTLTLTCTFSGFSLSTFGMGVGWIRQPPGKALEWLAHIWWDDEKYYNSALKSRLTISKDTSKNQVVLTITNMDPVDTATYYCARISNYGSNYWYFNVWGQGTLVTVSS
VL: AIQLTQSPSSLSASVGDRVTITCRASSSVSYMYWYQQKPGKAPKVLIYDTSNLASGVPSRFSGSGSGTDYTLTISSLQPEDFATYYCQQWNAYPLTFGQGTKLEIK
notes: Tested as whole humanized antibody produced in CHO cells and detected with anti-human IgG; the general methods speak of human IgG1/Kappa; also called clone 23-B-04
B6: humanized antibody 42-B-02 (antibody, V domains shown)
VH: QVTLRESGPALVKPTQTLTLTCTFSGFSLSTFGRGVGWIRQPPGKALEWLAHIWWDDEKYYNSALKSRLTISKDTSKNQVVLTITNMDPVDTATYYCARIQNYGSNYWYFDVWGQGTLVTVSS
VL: AIQLTQSPSSLSASVGDRVTITCRASSRISYMFWYQQKPGKAPKVLIYDTSNLASGVPSRFSGSGSGTDYTLTISSLQPEDFATYYCQQWNSYPLTFGQGTKLEIK
notes: Tested as whole humanized antibody from transient expression of heavy chain/kappa light chain pairs in CHO cells, detected with anti-human IgG; the general methods speak of human IgG1/Kappa; also called clone 42-B-02

The target of one assay is T1, dog iRhom2 full length wild type …. The assay can be described thus: FACS on MEF-DKO-Dog-iR2-FL-WT-T7 cells. As for the experimental part:
In brief, immortalized MEF-DKO-EV control cells, MEF-DKO-rhesus-iR2-FL-WT-T7 cells, MEF-DKO-cyno-iR2-FL-WT-T7 cells, MEF-DKO-dog-iR2-FL-WT-T7 cells and MEF-DKO-rabbit-iR2-FL-WT-T7 cells, as well as their respective iRhom1 counterparts, were harvested with 10 mM EDTA in PBS, washed and resuspended in FACS buffer (PBS, 3% FBS, 0.05% sodium azide), and seeded in Nunc U-bottom 96-well plates (Thermo Fisher Scientific, USA) at approximately 3×10⁵ cells per well. To pellet cells and remove supernatants, the plates were centrifuged at 1,500 rpm and 4° C. for 3 minutes. For primary staining, cells were resuspended in 100 μl per well of either FACS buffer alone (controls), mouse monoclonal anti-T7 IgG (Merck Millipore, USA) at 3 μg/ml FACS buffer or the antibodies of the invention also at 3 μg/ml FACS buffer and incubated on ice for 1 hour. Afterwards, plates were centrifuged at 1,500 rpm and 4° C. for 3 minutes and washed twice with 200 μl per well of FACS buffer. For secondary staining of previous anti T7 staining, cells were spun down and resuspended in 100 μl per well of PE-conjugated goat anti-mouse IgG F(ab′)2 detection fragment (Dianova, Germany) diluted 1:100 in FACS buffer. […] Finally, cells were resuspended in 150 μl per well of FACS buffer and analyzed using a BD Accuri™ C6 Plus flow cytometer (Becton Dickinson, Germany).
As to B1, the binding result is given as “binds”.

For another assay the target is unchanged. The assay can be described thus: FACS on MEF-DKO-Dog-iR2-FL-WT-T7 cells, 3 µg/ml. How it is done:
In brief, immortalized MEF-DKO-EV control cells, MEF-DKO-rhesus-iR2-FL-WT-T7 cells, MEF-DKO-cyno-iR2-FL-WT-T7 cells, MEF-DKO-dog-iR2-FL-WT-T7 cells and MEF-DKO-rabbit-iR2-FL-WT-T7 cells, as well as their respective iRhom1 counterparts, were harvested with 10 mM EDTA in PBS, washed and resuspended in FACS buffer (PBS, 3% FBS, 0.05% sodium azide), and seeded in Nunc U-bottom 96-well plates (Thermo Fisher Scientific, USA) at approximately 3×10⁵ cells per well. To pellet cells and remove supernatants, the plates were centrifuged at 1,500 rpm and 4° C. for 3 minutes. For primary staining, cells were resuspended in 100 μl per well of either FACS buffer alone (controls), mouse monoclonal anti-T7 IgG (Merck Millipore, USA) at 3 μg/ml FACS buffer or the antibodies of the invention also at 3 μg/ml FACS buffer and incubated on ice for 1 hour. Afterwards, plates were centrifuged at 1,500 rpm and 4° C. for 3 minutes and washed twice with 200 μl per well of FACS buffer. For secondary staining of previous anti T7 staining, cells were spun down and resuspended in 100 μl per well of PE-conjugated goat anti-mouse IgG F(ab′)2 detection fragment (Dianova, Germany) diluted 1:100 in FACS buffer. For secondary staining of previous staining with humanized antibodies of invention, cells were spun down and resuspended in 100 μl per well of PE-conjugated goat anti-human IgG F(ab′)2 detection fragment (Dianova, Germany) diluted 1:100 in FACS buffer. Protected from light, the cell suspensions were incubated on ice for 1 hour. Plates were then centrifuged at 1,500 rpm and 4° C. for 3 minutes and washed three times with 200 μl per well of FACS buffer. Finally, cells were resuspended in 150 μl per well of FACS buffer and analyzed using a BD Accuri™ C6 Plus flow cytometer (Becton Dickinson, Germany).
Regarding B2, the binding result was “binds”.
Regarding B3, the binding result is listed as “binds”.
As to B4, the binding result was “binds”.
Regarding B5, the binding result is “binds”.
With B6, the binding result was “binds”.
